Laboratory results as given in publication PMC10955490.

Columns and labels:
SlERF36 [1] = target: T1, SlERF36 (Solanum lycopersicum (tomato), UniProt A0A3Q7IBC2 1-221); assay: EMSA
SlERF36 [2] = target: T1, SlERF36; assay: competition

Binder	binding result (SlERF36 [1])	binding result (SlERF36 [2])
SlGA2ox3 promoter mutated probe (dsDNA) DNA 1: ATGCCCCCATCTAAAAAACCTTCATATTTC DNA 2: GAAATATGAAGGTTTTTTAGATGGGGGCAT	no binding	
SlGA2ox3 promoter GCC-box probe (dsDNA) DNA 1: ATGCCCCCATCTGCCGCCCCTTCATATTTC DNA 2: GAAATATGAAGGGGCGGCAGATGGGGGCAT	binds	
SlGA2ox3 promoter GCC-box unlabelled competitor (dsDNA) DNA 1: ATGCCCCCATCTGCCGCCCCTTCATATTTC DNA 2: GAAATATGAAGGGGCGGCAGATGGGGGCAT		binds
